The target in assay [1] is T1, zinc-transporting PIB-ATPase ZntA from Shigella sonnei (Shigella sonnei (UniProt Q3YW59, strain …, UniProt Q3YW59)).
T1 construct: HisTag removed with TEVp; also called SsZntA; HisTag-free SsZntA; not shown: His8, N-terminal, cleaved
The assay can be described thus: SEC. To be noted: both partners purified.

In assay [2] the target is T1, zinc-transporting PIB-ATPase ZntA from ….

Changes are numbered by the printed parent chain. Like-named read-outs stand apart in the source and are kept apart here.

T1 sequence (Q3YW59 whole entry, one chain of several): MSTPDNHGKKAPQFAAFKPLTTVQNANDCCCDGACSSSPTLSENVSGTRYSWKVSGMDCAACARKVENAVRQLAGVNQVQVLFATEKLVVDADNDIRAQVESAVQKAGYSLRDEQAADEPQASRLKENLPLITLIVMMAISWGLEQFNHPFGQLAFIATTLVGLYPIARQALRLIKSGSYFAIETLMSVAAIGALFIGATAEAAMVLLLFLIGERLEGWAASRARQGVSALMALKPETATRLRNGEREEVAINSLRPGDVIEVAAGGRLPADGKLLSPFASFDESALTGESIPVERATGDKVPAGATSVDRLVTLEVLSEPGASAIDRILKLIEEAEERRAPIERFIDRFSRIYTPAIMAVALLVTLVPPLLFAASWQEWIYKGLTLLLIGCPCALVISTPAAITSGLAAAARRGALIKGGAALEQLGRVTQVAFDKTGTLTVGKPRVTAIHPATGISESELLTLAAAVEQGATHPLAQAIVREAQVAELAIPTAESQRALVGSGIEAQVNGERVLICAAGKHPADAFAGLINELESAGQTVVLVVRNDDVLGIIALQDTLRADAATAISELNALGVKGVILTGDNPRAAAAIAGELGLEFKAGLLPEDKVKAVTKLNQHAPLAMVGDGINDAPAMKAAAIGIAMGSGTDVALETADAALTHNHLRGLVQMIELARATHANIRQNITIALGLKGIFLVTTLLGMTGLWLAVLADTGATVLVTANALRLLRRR

B1: Nb9 (VHH)
VHH: QLQLVESGGGVVQAGGSLRLSCAASGRTFSSYGMGWFRQAPGKEREFASAISGSGGSTYYADSVKGRFTISRDNAKNTVYLQMNSLKPEDTAVYYCARSRYYSGGRSLLEYDYWGQGTQVTVSS
notes: also called nanobody 9; source: E. coli BL21, purified (Ni2+ beads, SEC); not shown: His6, C-terminal, kept
In the case of B1, the binding result in assay [1] is recorded as “binds”.

B2: Nb10 (VHH)
VHH: QVQLVESGGGLVQTGGSLRLSCAASGLTFSSYNMGWFRQAPGKEREFLGAIWSSGFTYYLDSVKGRFTISRDNAKNTVYLQMDSLKPEDTAVYYCAAARRLLTQAAAVMFNSYDYWGQGTRVTVSS
On to B2, for which the binding result in assay [2] is “binds”.

B3: Nb11 (VHH)
VHH: QVQLVETGGGLVQAGDSLRLACAHSGRTFSTYAMGWFRQAPGKEREFVAAISGSGGTTIYADSVTGRFTISRDNTKNTVYLQMNSLKPEDTAVYSCAASQYYMGSRSTENYNVWGQGTQVTVSS
As to B3, the binding result in assay [2] was “binds”.

B4: Nb7 (VHH)
VHH: QVQLVESGGGLVQAGGSLRLSCAASGLTFSAYNMGWFRQAPGKEREFVGAIWSSSFTYYLDSLKGRFTISRDNTKNTVYLQMNSLKPEDTAVYYCAAARRLLTQAGAVLTTSYEYWGQGTQVTVSS
Regarding B4, in assay [2], the binding result is recorded as “binds”.

B5: Nb1 (VHH)
VHH: QVQLVESGGGLVQAGDSLRLSCAASGRTFSNYAMGWFRQAPGKEREFVAAISGGGGTTYYSDSVKGRFTISRDNAKSTVYLQMNSLKPEDTAVYFCASSTYYMPSRAADTYTYWGQGTQVTVSS
notes: also called nanobody 1; source: E. coli BL21, purified (Ni2+ beads, SEC); not shown: His6, C-terminal, kept
Regarding B5, the binding result in assay [1] is reported as “binds”.

B6: Nb2 (VHH)
VHH: B5 VHH with V2L, S7T
notes: also called nanobody 2; source: E. coli BL21, purified (Ni2+ beads, SEC); not shown: His6, C-terminal, kept
On to B6, for which the binding result in assay [1] is listed as “binds”.

B7: Nb8 (VHH)
VHH: QVQLVETGGGLVQAGGSLRLSCAASGRAFSSYGMGWFRQAPGKEREFVAAVSGSGATTIYADSVKGRFTISRDNAVNTVYLHMNDLKPDDTAVYYCAVGKYYSGSRQSHNYDYWGQGTQVTVSS
notes: also called nanobody 8; source: E. coli BL21, purified (Ni2+ beads, SEC); not shown: His6, C-terminal, kept
B7: the binding result in assay [1] is “binds”.

B8: Nb6 (VHH)
VHH: QLQLVETGGGLVQAGGSLRLSCAASGLIFSSYNMGWFRQAPGKEREFVGAIWSSSFTYLLDSVKGRFTISRDNAKNTVYLQMNSLKPEDTAVYYCAASRRLLTQGSAVSTTSYEYWGQGTQVTVSS
In the case of B8, the binding result in assay [2] is “binds”.

B9: Nb4 (VHH)
VHH: QVQLVESGGGVVQTGGSLRLSCAASGRTFSTYGMGWFRQAPGKEREFVAAISGSGGMTYYGDPVKGRFTISRDNAVNTVYLQMNNLKPEDTAVYICAVGAYYSGGSRAQNYEYWGQGTQVTVSS
notes: also called nanobody 4; source: E. coli BL21, purified (Ni2+ beads, SEC); not shown: His6, C-terminal, kept
On to B9, for which, in assay [1], the binding result was “binds”.

B10: Nb5 (VHH)
VHH: B9 VHH with P88A, I95V
notes: also called nanobody 5; source: E. coli BL21, purified (Ni2+ beads, SEC); not shown: His6, C-terminal, kept
On to B10, for which, in assay [1], the binding result is “binds”.

The record behind these values is publication PMC6698960, “Isolation and Characterization of Nanobodies against a Zinc-Transporting P-Type ATPase” (Antibodies, 2018).
